The text below walks through data of US20200087400A1 (EUREKA THERAPEUTICS, published 2020).

In assay [1] the target is T1, PSA 146-154 peptide/HLA-A*02:01 complex on the cell surface (human).
T1 construct: also called PSA146/HLA-A*02:01; PSA146-loaded T2 cells
The experiment in a line: flow cytometry, phage on T2 cells, anti-M13 + R-PE anti-mouse IgG. From the text: (§1) Binding of the phage clones was detected by HRP-conjugated anti-M13 antibodies and developed using HRP substrate. The absorbance was read at 450 nm. […] Then, unique antibody clones were identified through DNA sequencing of ELISA-positive clones. […] T2 cells loaded with different peptides and β2M were first stained with purified scFv phage clones, followed by staining with a mouse anti-M13 mAb, and finally R-PE conjugated horse anti-mouse IgG from Vector Labs. Each step of the staining was performed for between 30-60 minutes on ice and the cells were washed twice between stainings. All 16 clones recognized PSA146-loaded T2 cells specifically. FIG. 3 provides examples of PSA146/HLA-A*02:01 specific phage clone binding to peptide-loaded T2 cells through FACS. […] The negative control scFv phage clone presents a human antibody previously found not to bind any cell-surface human antigens.
(§2) To identify additional PSA146/HLA-A*02:01 specific phage clones.

Assay [2] concerns the target T2, control peptide A2E-3/HLA-A*02:01 complex on T2 cells (member of the P19 mixture) (human).
T2 construct: Loaded on T2 cells as part of the mixture of 19 control peptides
The experiment in a line: flow cytometry, phage on T2 cells.
Excerpt: as §1, §2

Assay [3] concerns the target T3, control peptide A2E-21/HLA-A*02:01 complex on T2 cells (member of the P19 mixture) (human).
T3 construct: Loaded on T2 cells as part of the mixture of 19 control peptides
Nature of the assay: flow cytometry, phage on T2 cells.
Excerpt: as §1, §2

For assay [4], the target named is T4, control peptide A2E-13/HLA-A*02:01 complex on T2 cells (member of the P19 mixture) (human).
T4 construct: Loaded on T2 cells as part of the mixture of 19 control peptides
Nature of the assay: flow cytometry, phage on T2 cells.
Excerpt: as §1, §2

The target of assay [5] is T5, control peptide A2E-1/HLA-A*02:01 complex on T2 cells (member of the P19 mixture) (human).
T5 construct: Loaded on T2 cells as part of the mixture of 19 control peptides
The experiment in a line: flow cytometry, phage on T2 cells.
Excerpt: as §1, §2

The target of assay [6] is T6, control peptide A2E-17/HLA-A*02:01 complex on T2 cells (member of the P19 mixture) (human).
T6 construct: Loaded on T2 cells as part of the mixture of 19 control peptides
Nature of the assay: flow cytometry, phage on T2 cells.
Excerpt: as §1, §2

Assay [7] addresses T7, control peptide A2E-11/HLA-A*02:01 complex on T2 cells (member of the P19 mixture) (human).
T7 construct: Loaded on T2 cells as part of the mixture of 19 control peptides
Nature of the assay: flow cytometry, phage on T2 cells.
Excerpt: as §1, §2

The target in assay [8] is T8, control peptide A2E-19/HLA-A*02:01 complex on T2 cells (member of the P19 mixture) (human).
T8 construct: Loaded on T2 cells as part of the mixture of 19 control peptides
Nature of the assay: flow cytometry, phage on T2 cells.
Excerpt: as §1, §2

In assay [9] the target is T9, control peptide A2E-9/HLA-A*02:01 complex on T2 cells (member of the P19 mixture) (human).
T9 construct: Loaded on T2 cells as part of the mixture of 19 control peptides
The experiment in a line: flow cytometry, phage on T2 cells.
Excerpt: as §1, §2

The target of assay [10] is T10, control peptide A2E-7/HLA-A*02:01 complex on T2 cells (member of the P19 mixture) (human).
T10 construct: Loaded on T2 cells as part of the mixture of 19 control peptides
The experiment in a line: flow cytometry, phage on T2 cells.
Excerpt: as §1, §2

Assay [11] deals with T11, control peptide A2E-15/HLA-A*02:01 complex on T2 cells (member of the P19 mixture) (human).
T11 construct: Loaded on T2 cells as part of the mixture of 19 control peptides
Nature of the assay: flow cytometry, phage on T2 cells.
Excerpt: as §1, §2

For assay [12], the target named is T12, control peptide A2E-14/HLA-A*02:01 complex on T2 cells (member of the P19 mixture) (human).
T12 construct: Loaded on T2 cells as part of the mixture of 19 control peptides
The experiment in a line: flow cytometry, phage on T2 cells.
Excerpt: as §1, §2

Assay [13] has as its target T13, control peptide A2E-8/HLA-A*02:01 complex on T2 cells (member of the P19 mixture) (human).
T13 construct: Loaded on T2 cells as part of the mixture of 19 control peptides
Nature of the assay: flow cytometry, phage on T2 cells.
Excerpt: as §1, §2

The target in assay [14] is T14, control peptide A2E-6/HLA-A*02:01 complex on T2 cells (member of the P19 mixture) (human).
T14 construct: Loaded on T2 cells as part of the mixture of 19 control peptides
Nature of the assay: flow cytometry, phage on T2 cells.
Excerpt: as §1, §2

In assay [15] the target is T15, control peptide A2E-10/HLA-A*02:01 complex on T2 cells (member of the P19 mixture) (human).
T15 construct: Loaded on T2 cells as part of the mixture of 19 control peptides
The experiment in a line: flow cytometry, phage on T2 cells.
Excerpt: as §1, §2

The target in assay [16] is T16, control peptide A2E-5/HLA-A*02:01 complex on T2 cells (member of the P19 mixture) (human).
T16 construct: Loaded on T2 cells as part of the mixture of 19 control peptides
Nature of the assay: flow cytometry, phage on T2 cells.
Excerpt: as §1, §2

In assay [17] the target is T17, control peptide A2E-4/HLA-A*02:01 complex on T2 cells (member of the P19 mixture) (human).
T17 construct: Loaded on T2 cells as part of the mixture of 19 control peptides
Nature of the assay: flow cytometry, phage on T2 cells.
Excerpt: as §1, §2

Assay [18] addresses T18, control peptide A2E-16/HLA-A*02:01 complex on T2 cells (member of the P19 mixture) (human).
T18 construct: Loaded on T2 cells as part of the mixture of 19 control peptides
The experiment in a line: flow cytometry, phage on T2 cells.
Excerpt: as §1, §2

Assay [19] deals with T19, control peptide A2E-23/HLA-A*02:01 complex on T2 cells (member of the P19 mixture) (human).
T19 construct: Loaded on T2 cells as part of the mixture of 19 control peptides
The experiment in a line: flow cytometry, phage on T2 cells.
Excerpt: as §1, §2

Assay [20] addresses T20, control peptide A2E-2/HLA-A*02:01 complex on T2 cells (member of the P19 mixture) (human).
T20 construct: Loaded on T2 cells as part of the mixture of 19 control peptides
Nature of the assay: flow cytometry, phage on T2 cells.
Excerpt: as §1, §2

B1: PSA146/HLA-A*02:01-specific scFv phage clone #26 (scFv, V domains shown)
VH: QVQLVQSGAEVKKPGASVKVSCKTSGYTFTNYGISWVRQAPGQGLEWMGWISAYNGNTNYAQNLQGRVTMTTDTSTSTAYMELRSLRSDDTAVYYCARSSYYGYLSDGWGQGTLVTVSS
VL: LPVLTQPPSASGTPGQRVTISCSGSSSNIGTNYVYWYQQLPGTAPKLLIYSNNQRPSGVPDRFSGSKSGTSASLAISGLRSEDEADYYCAAWDDSLSGLYVFGTGTKVTVLG
As for B1, the binding result is recorded as “binds” in assay [1]; “no binding” in [2]; “no binding” in assay [3]; “no binding” in assay [4]; “no binding” in assay [5]; “no binding” in assay [6]. The binding result in assay [7], in [8], in [9], in assay [10], in assay [11] and in assay [12] was “no binding” in each case. In addition, the binding result in assay [13], in assay [14], in [15], in assay [16], in assay [17] and in [18] was “no binding” each time. The binding result in assay [19] and in assay [20] was “no binding” in each case.

B2: PSA146/HLA-A*02:01-specific scFv phage clone #22 (scFv, V domains shown)
VH: EVQLVQSGAEVKKPGESLKISCKGSGYSFTSYWIGWVRQMPGKGLEWMGRIDPSDSYTNYSPSFQGHVTISADKSISTAYLQWSSLKASDTAMYYCARSFGAGYDSWGQGTLVTVSS
VL: QSALTQPASVSGSPGQSITISCTGTSSDVGGYNYVSWYQQHPGKAPKLMIYDVSKRPSGVSNRFSGSKSGNTASLTISGLQAEDEADYYCSSYTSSSRYVFGTGTKVTVLG
As for B2, the results for the binding result in assay [1] and in assay [5] were “binds” and “no binding”, respectively.

B3: PSA146/HLA-A*02:01-specific scFv phage clone #24 (scFv, V domains shown)
VH: QVQLVQSGAEVKKPGASVKVSCKASGYTFTSYYMHWVRQAPGKGLEWMGGFDPEDGETIYAQKFQGRVTMTEDTSTDTAYMELSSLRSEDTAVYYCARYPWDHWGQGTLVTVSS
VL: QAVVTQEPSLTVSPGGTVTLTCASSTGAVTSGYYPNWFQQKPGQAPRPLIYSTNNKHSWTPARFSGSLLGGKAALTLSGVQPEDEAEYYCLLYYGGQGVFGGGTKLTVLG
As to B3, the binding result is listed as “binds” in assay [1]; “no binding” in assay [2]; “no binding” in [3]; “no binding” in assay [4]; “no binding” in assay [5]; “no binding” in [6]. Further, the binding result in assay [7], in [8], in assay [9], in [10], in assay [11] and in assay [12] was “no binding” in each case. Moreover, the binding result in [13], in [14], in assay [15], in assay [16], in assay [17] and in assay [18] was “no binding” in each case. For the same molecule, the binding result in assay [19] and in [20] was “no binding” throughout.

B4: PSA146/HLA-A*02:01-specific scFv phage clone #21 (scFv, V domains shown)
VH: QVQLVQSGAEVKKPGASVKVSCKASGYTFTSYYMHWVRQAPGKGLEWMGGFDPEDGETIYAQKFQGRVTMTEDTSTDTAYMELSSLRSEDTAVYYCARYNYDTWGQGTLVTVSS
VL: QAVVTQEPSLTVSPGGTVTLTCASSTGTVTSTYYPNWFQQKPGQAPRALIYSTSNRHSWTPARFSGSLLGGKAALTVSGVQPDDEAEYYCLVFYGGVWVFGGGTKLTVLG
As to B4, the binding result in [1] was “binds”; in assay [2] it was “no binding”; in assay [3], “no binding”; in assay [4] it was “no binding”; in assay [5], “no binding”; in [6], “no binding”. Also, the binding result in [7], in assay [8], in [9], in assay [10], in assay [11] and in [12] was “no binding” throughout. Also, the binding result in [13], in [14], in assay [15], in assay [16], in assay [17] and in assay [18] was “no binding” in each case. Further, the binding result in [19] and in assay [20] was “no binding” in each case.

B5: PSA146/HLA-A*02:01-specific scFv phage clone #20 (scFv, V domains shown)
VH: EVQLVQSGAEVKKPGESLKISCKGSGYSFTSYRIGWVRQMPGKGLEWMGIIYPGDSDTRYSPSFQGQVTISADKSISTAYLQWSSLKASDTAMYYCARWGLSWDGWGVTDYWGQGTLVTVSS
VL: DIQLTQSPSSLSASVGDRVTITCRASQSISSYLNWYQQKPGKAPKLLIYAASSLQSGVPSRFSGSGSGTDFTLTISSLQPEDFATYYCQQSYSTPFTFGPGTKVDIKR
For B5, the binding result in assay [1] is on record as “binds”; in assay [2], “no binding”; in [3], “no binding”; in [4], “no binding”; in [5] it was “no binding”; in [6], “no binding”. Further, the binding result in assay [7], in assay [8], in assay [9], in assay [10], in assay [11] and in assay [12] was “no binding” throughout. Besides, the binding result in assay [13], in [14], in [15], in assay [16], in [17] and in assay [18] was “no binding” in each case. The binding result in assay [19] and in assay [20] was “no binding” each time.
